In patent CN114437215A (SHANGHAI MAIJI BIOTECHNOLOGY CO LTD, dated 2022):

T1: 食蟹猴CD38胞外段Flag标签蛋白 cyno-CD38-ECD-Flag (cynomolgus monkey, UniProt Q5VAN0 44-301)
T1 construct: range 44-301; No linker between CD38 and the tag is stated; also called cyno-CD38-Flag
T1 sequence: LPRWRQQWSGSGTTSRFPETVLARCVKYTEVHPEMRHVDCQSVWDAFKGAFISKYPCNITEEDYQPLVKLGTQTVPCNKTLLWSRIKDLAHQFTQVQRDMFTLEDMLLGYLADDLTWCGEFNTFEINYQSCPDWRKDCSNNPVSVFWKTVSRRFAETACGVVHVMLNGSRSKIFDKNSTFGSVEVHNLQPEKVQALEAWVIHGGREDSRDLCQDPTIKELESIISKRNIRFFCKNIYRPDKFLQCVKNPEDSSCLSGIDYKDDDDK

T2: 人CD38胞外段Flag标签蛋白 hCD38-ECD-Flag (human, UniProt P28907 43-300)
T2 construct: range 43-300; No linker between CD38 and the tag is stated; also called hCD38-Flag
T2 sequence: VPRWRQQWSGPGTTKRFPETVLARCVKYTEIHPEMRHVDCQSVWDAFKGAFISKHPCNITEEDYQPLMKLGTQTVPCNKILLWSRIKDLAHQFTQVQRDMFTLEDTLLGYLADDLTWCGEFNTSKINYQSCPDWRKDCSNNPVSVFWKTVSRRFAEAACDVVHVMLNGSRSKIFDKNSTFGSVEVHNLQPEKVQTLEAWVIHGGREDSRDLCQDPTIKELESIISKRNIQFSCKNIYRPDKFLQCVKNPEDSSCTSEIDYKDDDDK

B1: 人源化抗人CD38单克隆抗体57H (antibody, human IgG1, kappa, V domains shown)
VH: EVQLVESGGGLVQPGGSLRLSCAASGFTFSSFGMHWVRQAPGKGLEWVAYIGGDSNIIYYADTVKGRFTISRDNSKNTLYLQMNSLRAEDTAVYYCAKSHDYTMDYWGQGTLVTVSS
VL: DIVMTQSPSSLAVSLGERVTITCKSSQSLLYSTNQKNYLAWFQQKPGQSPKLLIYWASTRESGVPDRFSGSGSGTDFTLTISSLQAEDVAVYYCQRYYNYPYTFGQGTKVEIKR
notes: also called 57号抗体的人源化抗体
B2: 人源化抗人CD38单克隆抗体105H (antibody, human IgG1, kappa, V domains shown)
VH: QVQLVQSGAEVKKPGASVKVSCKASGYTFTSYWMHWVRQAPGQGLEWIGHINPSSGYSEYSQKFKDRATLTADKSTSTAYMELSSLRSEDTAVYYCEIYYYVSRYVGDSWGQGTLVTVSS
VL: DIQMTQSPSSLSASVGDRVTITCRASQEISGYLSWLQQKPGKTIKRLIYAASTLDSGVPSRFSGSRSGSDFTLTISSLQPEDFATYYCLQYDSYPLTFGQGTKVEIKR
notes: Humanized IgG1; also called 105-Humanization; 105号抗体的人源化抗体
B3: 人源化抗人CD38单克隆抗体116H (antibody, human IgG1, kappa, V domains shown)
VH: QVTLKESGPALVKPTQTLTLTCTLSGFSLSTSRMGVGWIRQPPGKGLEWLAHIWWDDDKRYNPALKSRLTISKDTSSNQVFLKIASVDKEDTATYYCGRIEVGRGAWFAYWGQGTLVTVSS
VL: EIVLTQSPATLSLSPGERVSVTCKASQDVVTTVAWYQQKPGQAPRTLIYSASYRYSGVPARFSGSGSGTDFTLTISSLEPEDFAVYYCQQYYTYPFTFGQGTKVEIKR
notes: also called 116号抗体的人源化抗体
B4: 人源化抗人CD38单克隆抗体145H (antibody, human IgG1, kappa, V domains shown)
VH: QVQLVQSGAEVKKPGASVKVSCKASGYTFTNYLIDWVRQAPGQGLEWIGLINPGSGSTKYNEKFKGRVTLTADKSTSTAYMELSSLRSEDTAVYYCAKTGTLPYWGQGTLVTVSS
VL: DIQMTQSPSSLSASVGDRVTITCKASQNVGTSVAWYQQKPGKAPKLLIYSTSYRSSGVPSRFSGSGSGTDFTLTISSLQPEDFATYYCQQYGSYPLTFGQGTKVEIKR
notes: also called 145号抗体的人源化抗体

What follows are binders tested against T1, 食蟹猴CD38胞外段Flag标签蛋白 cyno-CD38-ECD-Flag (assay: SPR, Biacore T200; antibody captured on Protein A CM5 chip, cyno-CD38-Flag as analyte).

Binder | Kd [nM] | koff [s⁻¹] | kon [M⁻¹ s⁻¹]
B1 | 1.68 | 9.2e-05 | 54900
B2 | 3.4 | 0.000208 | 61100
B3 | 0.405 | 0.000102 | 251000
B4 | 40.2 | 0.00393 | 97800

The binders below were run against T2, 人CD38胞外段Flag标签蛋白 hCD38-ECD-Flag (assay: SPR, Biacore T200; antibody captured on Protein A CM5 chip, hCD38-Flag as analyte).

Binder | Kd [nM] | koff [s⁻¹] | kon [M⁻¹ s⁻¹]
B1 | 0.382 | 0.000101 | 264000
B2 | 32.8 | 0.000975 | 29800
B3 | 0.065 | 9.53e-05 | 1.47e+06
B4 | 3.22 | 0.00198 | 612000
